Source: publication PMC7199855, “GRAF2, WDR44, and MICAL1 mediate Rab8/10/11–dependent export of E-cadherin, MMP14, and CFTR ΔF508” (The Journal of Cell Biology, 2020)

B1: myc-MICAL1 [human] / GRAF1b-GFP [human] (parent complex)
chain 1: MASPTSTNPAHAHFESFLQAQLCQDVLSSFQELCGALGLEPGGGLPQYHKIKDQLNYWSAKSLWTKLDKRAGQPVYQQGRACTSTKCLVVGAGPCGLRVAVELALLGARVVLVEKRTKFSRHNVLHLWPFTIHDLRALGAKKFYGRFCTGTLDHISIRQLQLLLLKVALLLGVEIHWGVTFTGLQPPPRKGSGWRAQLQPNPPAQLANYEFDVLISAAGGKFVPEGFKVREMRGKLAIGITANFVNGRTVEETQVPEISGVARIYNQSFFQSLLKATGIDLENIVYYKDDTHYFVMTAKKQCLLRLGVLRQDWPDTNRLLGSANVVPEALQRFTRAAADFATHGKLGKLEFAQDAHGQPDVSAFDFTSMMRAESSARVQEKHGARLLLGLVGDCLVEPFWPLGTGVARGFLAAFDAAWMVKRWAEGAESLEVLAERESLYQLLSQTSPENMHRNVAQYGLDPATRYPNLNLRAVTPNQVRDLYDVLAKEPVQRNNDKTDTGMPATGSAGTQEELLRWCQEQTAGYPGVHVSDLSSSWADGLALCALVYRLQPGLLEPSELQGLGALEATAWALKVAENELGITPVVSAQAVVAGSDPLGLIAYLSHFHSAFKSMAHSPGPVSQASPGTSSAVLFLSKLQRTLQRSRAKENAEDAGGKKLRLEMEAETPSTEVPPDPEPGVPLTPPSQHQEAGAGDLCALCGEHLYVLERLCVNGHFFHRSCFRCHTCEATLWPGGYEQHPGDGHFYCLQHLPQTDHKAEGSDRGPESPELPTPSENSMPPGLSTPTASQEGAGPVPDPSQPTRRQIRLSSPERQRLSSLNLTPDPEMEPPPKPPRSCSALARHALESSFVGWGLPVQSPQALVAMEKEEKESPFSSEEEEEDVPLDSDVEQALQTFAKTSGTMNNYPTWRRTLLRRAKEEEMKRFCKAQTIQRRLNEIEAALRELEAEGVKLELALRRQSSSPEQQKKLWVGQLLQLVDKKNSLVAEEAELMITVQELNLEEKQWQLDQELRGYMNREENLKTAADRQAEDQVLRKLVDLVNQRDALIRFQEERRLSELALGTGAQG
chain 2: MGLPALEFSDCCLDSPHFRETLKSHEAELDKTNKFIKELIKDGKSLISALKNLSSAKRKFADSLNEFKFQCIGDAETDDEMCIARSLQEFATVLRNLEDERIRMIENASEVLITPLEKFRKEQIGAAKEAKKKYDKETEKYCGILEKHLNLSSKKKESQLQEADSQVDLVRQHFYEVSLEYVFKVQEVQERKMFEFVEPLLAFLQGLFTFYHHGYELAKDFGDFKTQLTISIQNTRNRFEGTRSEVESLMKKMKENPLEHKTISPYTMEGYLYVQEKRHFGTSWVKHYCTYQRDSKQITMVPFDQKSGGKGGEDESVILKSCTRRKTDSIEKRFCFDVEAVDRPGVITMQALSEEDRRLWMEAMDGREPVYNSNKDSQSEGTAQLDSIGFSIIRKCIHAVETRGINEQGLYRIVGVNSRVQKLLSVLMDPKTASETETDICAEWEIKTITSALKTYLRMLPGPLMMYQFQRSFIKAAKLENQESRVSEIHSLVHRLPEKNRQMLQLLMNHLANVANNHKQNLMTVANLGVVFGPTLLRPQEETVAAIMDIKFQNIVIEILIENHEKIFNTVPDMPLTNAQLHLSRKKSSDSKPPSCSERPLTLFHTVQSTEKQEQRNSIINSSLESVSSNPNSILNSSSSLQPNMNSSDPDLAVVKPTRPNSLPPNPSPTSPLSPSWPMFSAPSSPMPTSSTSSDSSPVSTPFRKAKALYACKAEHDSELSFTAGTVFDNVHPSQEPGWLEGTLNGKTGLIPENYVEFL
B2: myc-MICAL1 [human] / GRAF2-GFP [human] (parent complex)
chain 1: B1 chain 1
chain 2: MGLQPLEFSDCYLDSPWFRERIRAHEAELERTNKFIKELIKDGKNLIAATKSLSVAQRKFAHSLRDFKFEFIGDAVTDDERCIDASLREFSNFLKNLEEQREIMALSVTETLIKPLEKFRKEQLGAVKEEKKKFDKETEKNYSLIDKHLNLSAKKKDSHLQEADIQVEQNRQHFYELSLEYVCKLQEIQERKKFEFVEPMLSFFQGMFTFYHQGHELAKDFNHYKMELQINIQNTRNRFEGTRSEVEELMNKIRQNPKDHKRASQFTAEGYLYVQEKRPAPFGSSWVKHYCMYRKAAKKFNMIPFEHRSGGKLGDGEVFFLKECTKRHTDSIDRRFCFDIEAADRPGVSLTMQAFSEEERKQWLEALGGKEALSHSFNTAIIPRPEGNAQLDKMGFTIIRKCISAVETRGINDQGLYRVVGVSSKVQRLLSMLMDVKTCNEVDLENSADWEVKTITSALKQYLRSLPEPLMTYELHGDFIVPAKSGSPESRVNAIHFLVHKLPEKNKEMLDILVKHLTNVSNHSKQNLMTVANLGVVFGPTLMRPQEETVAALMDLKFQNIVVEILIENHEKIFRTPPDTTFPEPTCLSASPPNAPPRQSKRQGQRTKRPVAVYNLCLELEDGDNPYPSKEDTPTSSLDSLSSPSPVTTAVPGPPGPDKNHLLADGGSFGDWASTIPGQTRSSMVQWLNPQSPTTTSSNSAVTPLSPGSSPFPFSPPATVADKPPESIRSRKARAVYPCEAEHSSELSFEIGAIFEDVQTSREPGWLEGTLNGKRGLIPQNYVKLL
B3: GFP-VAPA [human] / myc-WDR44 [human] (parent complex)
chain 1: MASASGAMAKHEQILVLDPPTDLKFKGPFTDVVTTNLKLRNPSDRKVCFKVKTTAPRRYCVRPNSGIIDPGSTVTVSVMLQPFDYDPNEKSKHKFMVQTIFAPPNTSDMEAVWKEAKPDELMDSKLRCVFEMPNENDKLNDMEPSKAVPLNASKQDGPMPKPHSVSLNDTETRKLMEECKRLQGEMMKLSEENRHLRDEGLRLRKVAHSDKPGSTSTASFRDNVTSPLPSLLVVIAAIFIGFFLGKFIL
chain 2: MASESDTEEFYDAPEDVHLGGGYPVGSPGKVGLSTFKETENTAYKVGNESPVQELKQDVSKKIIESIIEESQKVLQLEDDSLDSKGKELSDQATASPIVARTDLSNIPGLLAIDQVLPEESQKAESQNTFEETELELKKCFPSDETCEKPVDETTKLTQTSSTEQLNVLETETEVLNKEAVEVKGGGDVLEPVSSDSLSTKDFAAVEEVAPAKPPRHLTPEPDIVASTKKPVPARPPPPTNFPPPRPPPPSRPAPPPRKRKSELEFETLKTPDIDVPKENITSDSLLTASMASESTVKDSQPSLDLASATSGDKIVTAQENGKAPDGQTVAGEVMGPQRPRSNSGRELTDEEILASVMIKNLDTGEEIPLSLAEEKLPTGINPLTLHIMRRTKEYVSNDAAQSDDEEKLQSQPTDTDGGRLKQKTTQLKKFLGKSVKRAKHLAEEYGERAINKVKSVRDEVFHTDQDDPSSSDDEGMPYTRPVKFKAAHGFKGPYDFDQIKVVQDLSGEHMGAVWTMKFSHCGRLLASAGQDNVVRIWALKNAFDYFNNMRMKYNTEGRVSPSPSQESLSSSKSDTDTGVCSGTDEDPDDKNAPFRQRPFCKYKGHTADLLDLSWSKNYFLLSSSMDKTVRLWHISRRECLCCFQHIDFVTAIAFHPRDDRYFLSGSLDGKLRLWNIPDKKVALWNEVDGQTKLITAANFCQNGKYAVIGTYDGRCIFYDTEHLKYHTQIHVRSTRGRNKVGRKITGIEPLPGENKILVTSNDSRIRLYDLRDLSLSMKYKGYVNSSSQIKASFSHDFTYLVSGSEDKYVYIWSTYHDLSKFTSVRRDRNDFWEGIKAHNAVVTSAIFAPNPSLMLSLDVQSEKSEGNEKSEDAEVLDATPSGIMKTDNTEVLLSADFTGAIKVFVNKRKNVS

Variants of: B1
Test: co-immunoprecipitation (IP with α-myc-coated beads, quantified western blot); transfected 293T cells; n = 3–5; means ± SEM; parent: 1; read off a plot

| ratio to parent | Variant |
| --- | --- |
| ~0.05 | chain 1 K832A |

Variants of: B2
Test: co-immunoprecipitation (IP with α-myc-coated beads, quantified western blot); transfected 293T cells; n = 3 or 4; means ± SEM; parent: 1; read off a plot

| ratio to parent | Variant |
| --- | --- |
| ~0.03 | chain 1 K832A |

Variants of: B3
Test: co-immunoprecipitation (IP with α-GFP, quantified western blot); transfected 293T cells; n = 3 or 4; means ± SEM; parent: 1; read off a plot

| ratio to parent | Variant |
| --- | --- |
| ~0.4 | chain 1 K94D, chain 1 M96D |
